# B1: Pistol ribozyme (parent)
# chain: GGGUCGUUGUUCCAUAAUCGCGUGGAUAUGGCACGCAAGUUUCUACCGGGCACCGUAAAUGUCCGACUGGAGCCGUUCGGGCGGCUAUAAACAGACCUCAGGCCCGAAGCGUGGCGGCACCUGCCGCCGGUGGUAAAAAAGAUCGGAAGAGCACACGUCU
# Variants of: B1
# Test: aptazyme ON/OFF ratio, guanine; higher = stronger switching; co-transcriptional cleavage with and without guanine
row,Variant,aptazyme ON/OFF ratio
1,U8C G9U U10A U11A C12U C13A,1.14
2,U8C G9C U11A C12G C13G,1.15
3,U8C G9C U11A C12G C13U,1.07
4,U8C G9C U11A C12G C13A,1.17
5,U8C G9C U10G U11G C12A C13G,1.11
6,U8C G9C U10G U11G C12A C13A,1.08
7,U8C G9C U10G U11G C12A C13U,1.08
8,U8C G9C U10G U11C C12U C13G,1.09
9,U8C G9C U10G U11C C12U C13U,1.19
10,U8C G9C U10G U11C C12U C13A,1.17
11,U8C G9C U10C U11A C12A C13G,1.05
12,U8C G9C U10C U11A C12A C13A,1.04
13,U8C G9C U10C U11A C12A C13U,1.02
14,U8C G9U U10A U11A C12A C13U,1.33
15,U8C G9U U10A U11A C12A C13G,1.1
16,U8C G9U U10A U11A C12A C13A,1.28
17,U8C G9C U10C U11G C12U C13G,1.1
18,U8C G9C U10C U11G C12U C13U,1.06
19,U8C G9C U10C U11G C12U C13A,1.05
20,U8C G9C U10A U11C C13U,1.14
21,U8C G9C U10A U11C C13G,1.2

row,Variant,aptazyme ON/OFF ratio
1,U8C G9C U10A U11C C13A,1.23
2,U8C G9C U10G U11G C13G,1.11
3,U8C G9C U10G U11G C13A,1.11
4,U8C G9C U10G U11G C13U,1.07
5,U8C G9C U10A U11C C12G,1.2
6,U8C G9C U10A U11C C12A,1.24
7,U8C G9C U10A U11C C12U,1.21
8,U8C G9U U10A U11G C12A C13A,1.14
9,U8C G9U U10A U11G C12A C13G,1.13
10,U8C G9U U10A U11G C12A C13U,1.26
11,U8C G9U U10A U11G,1.74
12,U8C G9U U10A U11A,2.18
13,U8C G9U U10A U11C,1.06
14,U8C G9U U10A U11G C13A,1.2
15,U8C G9U U10A U11G C13G,1.11
16,U8C G9U U10A U11G C13U,1.32
17,U8C G9U,2.46
18,U8C G9C U10G U11G,1.11
19,U8C G9C U10G U11C,1.12
20,U8C G9C U10G U11A,1.1
21,U8C G9U U10A U11A C12U,1.48

row,Variant,aptazyme ON/OFF ratio
1,U8C G9U U10A U11A C12A,1.39
2,U8C G9U U10A U11A C12G,1.32
3,U8C G9C U10C C12U,1.07
4,U8C G9C U10C C12A,1.06
5,U8C G9C U10C C12G,1.06
6,U8C G9C C12G C13A,1.14
7,U8C G9C C12G C13U,1.13
8,U8C G9C C12G C13G,1.14
9,U8C G9C U10C U11C C13U,0.96
10,U8C G9C U10C U11C C13A,1.01
11,U8C G9C U10C U11C C13G,1.04
12,U8C G9U U10A U11C C12A C13G,1.08
13,U8C G9U U10A U11C C12A C13U,1.24
14,U8C G9U U10A U11C C12A C13A,1.33
15,U8C G9U C13U,1.27
16,U8C G9U C13G,1.03
17,U8C G9U C13A,1.08
18,U8C G9C U10G C12A C13G,1.08
19,U8C G9C U10G C12A C13A,1.13
20,U8C G9C U10G C12A C13U,1.09
21,U8C G9C U10C U11A C13U,1.04

row,Variant,aptazyme ON/OFF ratio
1,U8C G9C U10C U11A C13G,1.08
2,U8C G9C U10C U11A C13A,1.01
3,U8C G9C U10A U11G C13G,1.2
4,U8C G9C U10A U11G C13A,1.2
5,U8C G9C U10A U11G C13U,1.13
6,U8C G9C U10A U11A C12G C13G,1.18
7,U8C G9C U10A U11A C12G C13A,1.1
8,U8C G9C U10A U11A C12G C13U,1.12
9,U8C G9C U10G U11G C12U C13U,1.09
10,U8C G9C U10G U11G C12U C13G,1.13
11,U8C G9C U10G U11G C12U C13A,1.07
12,U8C G9C U10G C12A,1.2
13,U8C G9C U10G C12U,1.12
14,U8C G9C U10G C12G,1.19
15,U8C G9U U10A C13A,1.29
16,U8C G9U U10A C13U,1.37
17,U8C G9U U10A C13G,1.06
18,U8C G9C U10C U11A C12U C13A,1.02
19,U8C G9C U10C U11A C12U C13G,1.02
20,U8C G9C U10C U11A C12U C13U,1.01
21,U8C G9U U10C C12A,1.19

# From the RNAGym collection of RNA variant scans (doi:10.1021/acssynbio.7b00057)
